# Experimental data: patent publication US20190202925A1 (OPI VI IP HOLDCO, published 2019)
# T1: soluble human TNFR2 (human, UniProt P20333 23-257)
# T1 construct: also called soluble TNFR2
# T1 sequence (looked up): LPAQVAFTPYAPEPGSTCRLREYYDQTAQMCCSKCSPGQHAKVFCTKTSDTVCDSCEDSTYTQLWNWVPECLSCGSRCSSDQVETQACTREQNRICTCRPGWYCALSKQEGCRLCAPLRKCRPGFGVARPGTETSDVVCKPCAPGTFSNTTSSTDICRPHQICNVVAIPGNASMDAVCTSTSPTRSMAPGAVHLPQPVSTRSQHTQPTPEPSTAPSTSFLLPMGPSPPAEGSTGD
# T2: human TNFR2 on cells (human, UniProt P20333 23-461)
# T2 sequence (looked up): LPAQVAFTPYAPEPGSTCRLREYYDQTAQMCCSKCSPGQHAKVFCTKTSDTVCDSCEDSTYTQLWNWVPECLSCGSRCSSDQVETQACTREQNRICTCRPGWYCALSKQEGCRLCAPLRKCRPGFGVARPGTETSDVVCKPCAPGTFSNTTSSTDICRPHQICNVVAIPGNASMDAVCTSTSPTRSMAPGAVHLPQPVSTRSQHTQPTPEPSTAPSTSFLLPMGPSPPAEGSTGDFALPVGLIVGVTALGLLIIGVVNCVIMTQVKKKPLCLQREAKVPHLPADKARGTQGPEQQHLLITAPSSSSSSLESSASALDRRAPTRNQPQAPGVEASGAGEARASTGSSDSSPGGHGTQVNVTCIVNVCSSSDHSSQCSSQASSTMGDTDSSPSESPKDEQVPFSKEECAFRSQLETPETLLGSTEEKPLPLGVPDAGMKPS
# T3: monomeric human TNFR2 extracellular domain (human, UniProt P20333 23-257)
# T3 construct: extracellular domain; Analyte in the Octet experiments; also called human TNFR2 ECD
# T3 sequence (looked up): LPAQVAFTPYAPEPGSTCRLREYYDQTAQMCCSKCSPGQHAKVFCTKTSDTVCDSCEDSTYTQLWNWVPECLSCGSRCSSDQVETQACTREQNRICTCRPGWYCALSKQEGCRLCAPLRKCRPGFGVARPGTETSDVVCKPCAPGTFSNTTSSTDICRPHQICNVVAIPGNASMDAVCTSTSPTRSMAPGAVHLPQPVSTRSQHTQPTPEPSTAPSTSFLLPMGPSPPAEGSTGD
# T4: monomeric cynomolgus TNFR2 extracellular domain (cynomolgus monkey, UniProt A0A2K5VET2 132-366)
# T4 construct: extracellular domain; Analyte in the Octet experiments; also called cynomolgus TNFR2 ECD; Cyno TNFR2
# T4 sequence: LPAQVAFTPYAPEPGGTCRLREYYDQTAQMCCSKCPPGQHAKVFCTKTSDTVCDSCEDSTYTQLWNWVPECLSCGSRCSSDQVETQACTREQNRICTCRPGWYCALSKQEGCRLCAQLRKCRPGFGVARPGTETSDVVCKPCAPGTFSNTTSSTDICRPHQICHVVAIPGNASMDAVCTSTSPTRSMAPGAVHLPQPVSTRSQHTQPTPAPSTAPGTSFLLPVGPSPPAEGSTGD
# T5: soluble cynomolgus TNFR2 (cynomolgus, UniProt A0A2K5VET2 132-366)
# T5 sequence: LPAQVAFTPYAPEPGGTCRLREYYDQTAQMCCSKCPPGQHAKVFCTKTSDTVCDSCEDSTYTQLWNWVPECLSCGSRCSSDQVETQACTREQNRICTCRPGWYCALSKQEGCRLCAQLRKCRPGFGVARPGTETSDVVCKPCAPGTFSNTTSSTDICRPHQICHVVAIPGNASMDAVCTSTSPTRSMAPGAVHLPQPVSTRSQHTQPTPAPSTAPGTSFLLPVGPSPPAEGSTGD
# Key:
# soluble human TNFR2 [1] = molecular target: T1, soluble human TNFR2; assay: competition ELISA: plate-bound soluble TNFR2, antibody titrated against constant biotinylated TNFα, streptavidin-HRP, A450
# From the text: (§1) Soluble human TNFR2 was coated on Nunc-Immuno™ plates. […] IC₅₀ values are reported in nM.
# (§2) IC₅₀ values are reported in nM.
# soluble human TNFR2 [2] = molecular target: T1, soluble human TNFR2; assay: competition ELISA (FIG. 2), plate-bound soluble human TNFR2, constant biotinylated TNFα as competitor
# From the text: as §1
# human TNFR2 on cells [3] = molecular target: T2, human TNFR2 on cells; assay: cell-based or functional assay
# [4] = molecular target: T3, monomeric human TNFR2 extracellular …; assay: BLI (Octet Red 96), antibody captured on Fc biosensor, monomeric TNFR2 ECD in solution, 1:1 model
# Protocol: (§3) Analysis of binding to the human and cynomolgus TNFR2 ECD was performed using an Octet Red 96 Instrument™ (ForteBio). […] The experiments were performed using five steps: (1) baseline acquisition (60 s); (2) antibody loading on to anti-human or anti-mouse Fc biosensors (120 s); (3) second baseline acquisition (60 s); (4) association of interacting monomeric human or cynomolgus TNFR2 ECD protein for kₒₙ measurement (120 s); and (5) dissociation of interacting monomeric human or cynomolgus TNFR2 ECD for koff measurement (240-3600 s).
# (§4) The interacting monomeric human or cynomolgus ECD was used at 5-6 concentrations of a 3-fold concentration series. The data were analyzed using Octet Data Analysis Software 9.0™ (ForteBio) and fit to the 1:1 binding model. The equilibrium dissociation constants (Kd) were calculated by the ratio of […].
# [5] = molecular target: T4, monomeric cynomolgus TNFR2 …; assay: as above
# Protocol: as §3, §4
# soluble human TNFR2 [6] = molecular target: T1, soluble human TNFR2; assay: competition ELISA: plate-bound soluble human TNFR2, competitor biotinylated TNFα, streptavidin-HRP, A450
# Protocol: (§5) Soluble human TNFR2 (Sino Biological, 10417-H08H) or cynomolgus TNFR2 (Sino Biological, 90102-C08H) was coated on Nunc-Immuno™ plates at 0.1 μg/ml, 0.5 ug/ml, 1 μg/ml, and 5 μg/ml. […] Plates were developed using TMB and stopped with 3 M HCl.
# human TNFR2 on cells [7] = molecular target: T2, human TNFR2 on cells; assay: flow cytometry on human PBMC, antibody at 10 ug/mL, anti-human Fc-PE secondary
# Protocol: The following day 0.3×10⁶ PBMC were counted and washed with PBS (Lonza). PBMCs were resuspended in Fixable Viability Stain 575V (BD) diluted 1:1,000 in PBS and incubated for 10 minutes. PBMCs were then washed twice in PBS to remove residual viability stain. PBMCs were then resuspended in Horizon Brilliant Stain Buffer (BD) with 10 uL per test of human Fc receptor binding inhibitor (eBioscience) and incubated on ice for 20 minutes to block Fc receptors. […] PBMCs were incubated 20 minutes on ice and then washed three times with 2% FBS PBS. To visualize TNFR chimeric antibody binding, PBMCs were resuspended in goat anti-human Fc-PE F(ab′)₂ secondary reagent (Jackson ImmunoResearch) diluted 1:200 in 2% FBS PBS and incubated on ice for 20 minutes. Cells were then washed three times in 2% FBS PBS and resuspended in 200 uL 2% FBS PBS for flow cytometry analysis using a BD FACS Celesta instrument and FACS Diva software. T cells were analyzed for chimeric TNFR2 binding by gating on viable cells defined as lymphocytes using forward and side scatter and as T cells by anti-CD3 staining. CD4⁺ and CD8⁺ subsets were identified by commercially available specific antibody conjugates.
# soluble cynomolgus TNFR2 [8] = molecular target: T5, soluble cynomolgus TNFR2; assay: competition ELISA: plate-bound soluble cynomolgus TNFR2, competitor biotinylated TNFα; IC50 relative to unlabelled TNFα = 1.00
# Protocol: as §5, §2
# soluble human TNFR2 [9] = molecular target: T1, soluble human TNFR2; assay: competition ELISA: plate-bound soluble human TNFR2, competitor biotinylated TNFα; IC50 relative to unlabelled TNFα = 1.00
# Protocol: as §5, §2
# soluble human TNFR2 [10] = molecular target: T1, soluble human TNFR2; assay: competition ELISA, plate-bound soluble human TNFR2, biotinylated TNFα as competitor
# Protocol: as §5, §2
# [11] = molecular target: T6, cynomolgus TNFR2 on cells (cynomolgus); assay: flow cytometry on cynomolgus PBMC, antibody at 10 ug/mL, anti-human Fc-PE secondary
# T6 construct: whole, on cells; also called cynomolgus TNFR2 on CD4+ and CD8+ T cells
# Protocol: Cynomolgus peripheral blood mononuclear cells (PBMCs) from two independent donors were isolated by diluting whole blood (SNBL USA) 1:1 in PBS (Lonza), layering over Ficoll-Paque Plus (GE Healthcare), and centrifuging for 35 minutes at 400×g. The PBMC fraction was removed, washed 3 times in 2% FBS PBS and counted. 0.3×10⁶ PBMC were resuspended in Fixable Viability Stain 575V (BD) diluted 1:1000 in PBS and incubated for 10 minutes. PBMC were then washed twice in PBS to remove residual viability stain, resuspended in Horizon Brilliant Stain Buffer (BD) with 10 uL per test of human Fc receptor binding inhibitor (eBioscience), and incubated on ice for 20 minutes to block Fc receptors. […] PBMC were incubated 20 minutes on ice and then washed three times with 2% FBS PBS. To visualize TNFR2 chimeric antibody binding, PBMC were resuspended in goat anti-human Fc-PE F(ab′)₂ secondary reagent (Jackson ImmunoResearch) diluted 1:200 in 2% FBS PBS and incubated on ice for 20 minutes. Cells were then washed three times in 2% FBS PBS and resuspended in 200 uL 2% FBS PBS for flow cytometry analysis using a BD FACS Celesta instrument and FACS Diva software. T cells were analyzed for chimeric TNFR2 binding by gating on viable cells defined as lymphocytes using forward and side scatter and as T cells by anti-CD3 staining. CD4⁺ and CD8⁺ subsets were identified using commercial specific antibody conjugates.
# soluble cynomolgus TNFR2 [12] = molecular target: T5, soluble cynomolgus TNFR2; assay: competition ELISA: plate-bound soluble cynomolgus TNFR2, competitor biotinylated TNFα, streptavidin-HRP, A450
# Protocol: as §5
# soluble cynomolgus TNFR2 [13] = molecular target: T5, soluble cynomolgus TNFR2; assay: competition ELISA, plate-bound soluble cynomolgus TNFR2, biotinylated TNFα as competitor
# Protocol: as §5, §2
IC50 (soluble human TNFR2 [1]) [nM],IC50 (soluble human TNFR2 [2]) [nM],"IC50 (µg/mL) (with pre-incubation); rescue of Jurkat H6 cells from 2 ng/mL TNFα, luminescence (human TNFR2 on cells [3])","IC50 (µg/mL) (without pre-incubation); rescue of Jurkat H6 cells from 2 ng/mL TNFα, luminescence (human TNFR2 on cells [3])",Kd [4] [nM],Kd [5] [nM],IC50 (soluble human TNFR2 [6]) [nM],% CD4^+ ab^+ Donor 1 (human TNFR2 on cells [7]) [%],% CD4^+ ab^+ Donor 2 (human TNFR2 on cells [7]) [%],% CD8^+ ab^+ Donor 1 (human TNFR2 on cells [7]) [%],% CD8^+ ab^+ Donor 2 (human TNFR2 on cells [7]) [%],Relative IC50 (soluble cynomolgus TNFR2 [8]) [nM],Relative IC50 (soluble human TNFR2 [9]) [nM],Average Relative IC50 (soluble human TNFR2 [10]) [nM],% CD4^+ ab^+ Donor 1 [11] [%],% CD4^+ ab^+ Donor 2 [11] [%],% CD8^+ ab^+ Donor 1 [11] [%],% CD8^+ ab^+ Donor 2 [11] [%],IC50 (soluble cynomolgus TNFR2 [12]) [nM],Average Relative IC50 (soluble cynomolgus TNFR2 [13]),Binder
8.27,9.04,3.03,2.53,2.7,53.1,,,,,,,,,,,,,,,"SBT-001 (antibody, V domains shown, Parental mouse antibody; also called mouse SBT-001) VH: EVQLQQSGAELVKPGASVKISCKASGYTFTDYNMDWVKQSHGKSLEWIGDINPNYESTSYNQKFKGKATLTVDKSSSTAYMEVRSLTSEDTAVFYCARDKGWYFDVWGAGTTVTVSS VL: ENVLTQSPAIMSASLGEKVTMSCRASSSVKNMYWYQQKSDASPKLWIYYTSNLAPGVPARFSGSGSGNSYSLTISSMEGEDAATYYCQQFTSSPYTFGGGTKLELK"
,,,,2.8,7.9,12.9,29.3,18.4,9.1,11.4,1.57,2.33,2.93,8,5.5,9.2,11,15.1,1.56,"chimeric SBT-004b (antibody, human IgG1, V domains shown, Same heavy chain as chSBT-004 (human IgG1 Fc domain); also called chSBT-004b) VH: EVQLQQSGPEVGRPGSSVKISCKASGYTFTDYIMHWVKQSPGQGLEWIGWVDPEYGSTDYAEKFKKKATLTADTSSNTAYIQLSSLTSEDTATYFCARDDGSYSPFDYWGQGVMVTVSS VL: NIVMTQSPKSMSMSVGERVTLTCKASENVVTYVSWYQQKPEQSPKLLIYGASNRYTGVPDRFTGSGSATDFTLTISSVQAEDLADYHCGQGYSYPYTFGGGTKLEIK"
